Values of other authors, collected in article PMC6784060.
pKd: −log10 of the molar value.

Target: Beclin-1 BH3 (Homo sapiens) (UniProt Q14457)
Sequence of UniProt Q14457 (Q14457 107-127): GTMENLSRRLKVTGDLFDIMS

Bcl-xL (from UniProt Q07817)
pKd: 5.77
